These results are taken from patent US20180298101A1 (published 2018).

Holding throughout (assay): ITC
Experiment [1] concerns the target T1, hCIS-SH2-BC complex (ternary complex of human GST-CIS-SH2 construct, residues 66-258 with PEST region 174-202 … (UniProt Q9NSE2 66-258; Q15370 1-118; P83940 17-112).
Experiment [2] concerns the target T1, hCIS-SH2-BC complex (ternary complex of …). This is another data set of the same source.
Experiment [3] deals with human CIS lacking the PEST motif (ΔPEST) in trimeric complex with elongin B and elongin C (UniProt Q9NSE2 1-258; Q15370 1-118; Q15369 17-112).
Experiment [4] has as its target T2, human CIS lacking both the N-terminal region (residues 1-66) and the PEST motif (ΔNT/ΔPEST) in trimeric … (UniProt Q9NSE2 67-258; Q15370 1-118; Q15369 17-112).
The target of experiment [5] is human full-length CIS in trimeric complex with elongin B and elongin C (UniProt Q9NSE2 1-258; Q15370 1-118; Q15369 17-112).
The target in experiment [6] is T2, human CIS lacking both the N-terminal …. This is another data set of the same source.

Where two headings read alike, the source gives them in different places. Non-standard residues stand in square brackets, D forms with d. No end group written: not given here. pY = N[C@@H](Cc1ccc(OP(=O)(O)O)cc1)C(=O)O

On to CQV[pY]FTYDPYSE [IL-2Rβ cytoplasmic domain phosphopeptide (Tyr355 phosphorylated)], for which the Kd in experiment [1] and in experiment [2] was 0.94 µM in each case. As to DDA[pY]CTFPSRDD [IL-2Rβ cytoplasmic domain phosphopeptide (Tyr392 phosphorylated)], the equilibrium dissociation constant (Kd) in experiment [1] and in experiment [2] was 1.8 µM throughout. YDP[pY]SEEDPDEG [IL-2Rβ cytoplasmic domain phosphopeptide (Tyr361 phosphorylated)]: the Kd in experiment [1] and in experiment [2] was 1.5 µM each time. Consider AIETDKE[pY]YTVKDDRD [JAK1 activation loop phosphopeptide (Tyr1034 phosphorylated)], for which the dissociation constant (Kd) worked out at 2.1 µM in experiment [2]; 5.3 µM in experiment [3]; 2.2 µM in experiment [4]; 5.3 µM in experiment [5]; 2.2 µM in experiment [6]. As for AIETAKE[pY]YTVKDDRD [JAK1-Y1034 phosphopeptide with an alanine substitution at the -3 position], the Kd in experiment [6] turned out to be 3.5 µM. In experiment [6], AIETDKE[pY]YTAKDDRD [JAK1-Y1034 phosphopeptide with an alanine substitution at the +3 position] returned a Kd of 8.3 µM. As for AIETDKE[pY]YTVKADRD [JAK1-Y1034 phosphopeptide with an alanine substitution at the +5 position], in experiment [6], the Kd is 6.3 µM. The molecule LLPLDKDYYVVREPGQ (not fully specified (residue 8)) [JAK3 activation loop phosphopeptide (Tyr980 phosphorylated)] returned a dissociation constant Kd in experiment [2] of 0.8 µM.
